Reference: the supplement of paper PMC7877785
± gives the uncertainty stated by the source.

Assay: self-splicing fitness, log relative to wild type (ln ratio); higher = more splicing; Tetrahymena group I intron in knt gene, E. coli kanamycin selection, DiMSum; sequences stand for … in CUCUCU…GGAGGGAAAAGUUAUCAGGCAUGCACCUGGUAGCUAGUCUUUAAACCAAUAGAUUGCAUCGGUUUAAAAGGCAAGACCGUCAAAUUGCGGGAAAGGGGUCAACAGCCGUUCAGUACCAAGUCUCAGGGGAAACUUUGAGAUGGCCUUGCAAAGGGUAUGGUAAUAAGCUGACGGACAUGGUCCUAACCACGCAGCCAAGUCCUAAGUCAACAGAUCUUCUGUUGAUAUGGAUGCAGUUCACAGACUAAAUGUCGGUCGGGGAAGAUGUAUUCUUCUCAUAAGAUAUAGUCGGACCUCUCCUUAAUGGGAGCUAGCGGAUGAAGUGAUGCAACACUGGAGCCGCUGGGAACUAAUUUGUAUGCGAAAGUAUAUUGAUUAGUUUUGGAGUACUCGUGGUCG
How it was run: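 DiMSum derived fitness as the error-weighted combination of fold changes across replicates, kanamycin versus no kanamycin, normalised to wild type. E. coli BL21(DE3) held the library, which randomised all eight P1ex-region intron nucleotides within the knt kanamycin-resistance gene on pET-22b(+). Six replicate transformations grew overnight at 37°C or 30°C on LB agar with or without 25 μg/mL kanamycin, also containing 100 μg/mL carbenicillin, 50 μM IPTG and 0.2% rhamnose, and pooled colonies were amplicon-sequenced on an Illumina HiSeq 2500.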

Sequence	self-splicing fitness (ln) (30 °C)	self-splicing fitness (ln) (37 °C)
CUACAGCAAUAUUACGGUGC	-4.58 ± 0.28	-2 ± 0.17
UUGCAGCAAUAUUACGGCAA	-3.02 ± 0.23	-2.27 ± 0.24
AUAAAGCAAUAUUACGGGAU	-0.81 ± 0.055	-0.671 ± 0.083
CUAUAGCAAUAUUACGUCUU	-4.3 ± 0.32	-2.76 ± 0.23
CGCGAGCAAUAUUACGAGUC	-2.7 ± 0.38	-1.57 ± 0.29
UGGGAGCAAUAUUACGCACA	-0.967 ± 0.35	0.399 ± 0.35
GGGUAGCAAUAUUACGGGCG	-0.346 ± 0.098	-0.12 ± 0.13
AUUUAGCAAUAUUACGGAGG	-2.53 ± 0.19	-2.06 ± 0.27
UUAAAGCAAUAUUACGGUCU	-0.805 ± 0.074	-0.3 ± 0.098
UGCCAGCAAUAUUACGUAUG	-1.2 ± 0.069	-0.775 ± 0.095
ACGCAGCAAUAUUACGUCUC	-3.88 ± 0.13	-0.606 ± 0.084
CGGUAGCAAUAUUACGAGGA	-3.34 ± 0.46	-1.75 ± 0.29
AAGCAGCAAUAUUACGACCU	0.301 ± 0.08	0.149 ± 0.11
CGAUAGCAAUAUUACGGUUA	-0.777 ± 0.17	-0.253 ± 0.13
AAUGAGCAAUAUUACGGUCA	-1.92 ± 0.28	-1.45 ± 0.36
CACGAGCAAUAUUACGCAUU	-4.65 ± 0.41	-1.95 ± 0.3
CUUAAGCAAUAUUACGGUAC	-3.99 ± 0.36	-3.27 ± 0.32
GUGUAGCAAUAUUACGAUCA	-0.818 ± 0.13	-0.543 ± 0.14
CGUGAGCAAUAUUACGCCCU	-3.26 ± 0.23	-1.98 ± 0.24
AGCUAGCAAUAUUACGAUAG	-3.51 ± 0.2	-2.84 ± 0.23
UUUUAGCAAUAUUACGAAGA	-1.85 ± 0.31	-1.21 ± 0.22
GAACAGCAAUAUUACGAAAG	-3.62 ± 0.18	-1.58 ± 0.13
AUUCAGCAAUAUUACGAUGC	-1.27 ± 0.11	0.0653 ± 0.13
UGAUAGCAAUAUUACGGCCC	-2.82 ± 0.48	-0.72 ± 0.42

Sequence	self-splicing fitness (ln) (30 °C)	self-splicing fitness (ln) (37 °C)
UAGAAGCAAUAUUACGCACC	-2.13 ± 0.27	-1.44 ± 0.25
CCUUAGCAAUAUUACGCUGA	-3.23 ± 0.47	
CACUAGCAAUAUUACGGUAG	-1.99 ± 0.1	-0.969 ± 0.094
CCCGAGCAAUAUUACGAAAC		-0.43 ± 0.4
AUUCAGCAAUAUUACGCAAA	-1.04 ± 0.14	-0.821 ± 0.16
GGCAAGCAAUAUUACGAGUA	-1.52 ± 0.15	-0.685 ± 0.13
UUUGAGCAAUAUUACGAACA	-2.9 ± 0.23	-2.15 ± 0.21
GGACAGCAAUAUUACGCCUC	-0.953 ± 0.32	-0.751 ± 0.3
UGUCAGCAAUAUUACGUCAC	-3.9 ± 0.39	-3.29 ± 0.37
GCAAAGCAAUAUUACGGGUG	-1.23 ± 0.047	-1.23 ± 0.057
UACCAGCAAUAUUACGGUUA	-0.306 ± 0.063	0.23 ± 0.076
UCAUAGCAAUAUUACGUAUG	-3.28 ± 0.16	-2.09 ± 0.11
CUUGAGCAAUAUUACGAGAU	-3.68 ± 0.37	-0.585 ± 0.15
UCGUAGCAAUAUUACGUAAU	-2.47 ± 0.14	-1.78 ± 0.17
UAGUAGCAAUAUUACGUGAU	-3.84 ± 0.33	-2.18 ± 0.28
GAGGAGCAAUAUUACGCGUU	-3.99 ± 0.39	-2.2 ± 0.36
ACCUAGCAAUAUUACGUAUG	-2.71 ± 0.097	-1.61 ± 0.099
AGGGAGCAAUAUUACGCUGU	-2.11 ± 0.26	-3.01 ± 0.47
AAAAAGCAAUAUUACGGUGC	-3.45 ± 0.099	-2.25 ± 0.081
CAAUAGCAAUAUUACGCAGU	-3.56 ± 0.26	-2.12 ± 0.21
CGCUAGCAAUAUUACGUAUC	-3.84 ± 0.33	-2.76 ± 0.31
GCCCAGCAAUAUUACGGUUG	-2.99 ± 0.12	-1.95 ± 0.11
AUGGAGCAAUAUUACGCUCA	-1.46 ± 0.17	-1.17 ± 0.18
